Source: paper PMC2887959
Read-outs that look alike come from different tables or passages of the source.

What was measured:
Assay in all cases: fluorescence anisotropy
IN deltaC (IN1-213) [1] = molecular target: T1, IN deltaC (IN1-213) (HIV-1, UniProt P04585 1148-1360)
[2] = molecular target: T2, IN catalytic core CC (IN50-213) (HIV-1, UniProt P04585 1197-1360)
IN deltaC (IN1-213) [3] = molecular target: T1, IN deltaC (IN1-213); remark: listed apart in the source
[4] = molecular target: T2, IN catalytic core CC (IN50-213); remark: listed apart in the source

B1: U5A/U5B (dsDNA)
DNA 1: GTGTGGAAAATCTCTAGCAGT
DNA 2: ACTGCTAGAGATTTTCCACAC
For B1, the Kd (IN deltaC (IN1-213) [1]) was 64 ± 8 nM, the Kd [2] was 53 ± 13 nM and the Kd (IN deltaC (IN1-213) [3]) was 60 ± 4 nM. For the same binder, the Kd [4] was 61 ± 10 nM.
